Results as given in patent US20180369341A1.

How the values were obtained:
[1] = molecular target: human GLP-1 receptor (human) (UniProt P43220); experiment: cell-based or functional assay
FcRn [2] = experiment: FcRn binding assay (method not described); Aggregation Study, albiglutide in NaCl + cysteine formulation, stored at 30°C for 2 months
FcRn [3] = experiment: FcRn binding assay (method not described); Aggregation Study, albiglutide in NaCl + cysteine formulation, stored at 2-8°C for 2 months
FcRn [4] = experiment: FcRn binding assay (method not described); Aggregation Study, albiglutide in NaCl, octanoate and cysteine formulation, stored at 30°C for 2 months
FcRn [5] = experiment: FcRn binding assay (method not described); Aggregation Study, albiglutide in NaCl, octanoate and cysteine formulation, stored at 2-8°C for 2 months

Chain of UniProt P43220 (P43220 24-463): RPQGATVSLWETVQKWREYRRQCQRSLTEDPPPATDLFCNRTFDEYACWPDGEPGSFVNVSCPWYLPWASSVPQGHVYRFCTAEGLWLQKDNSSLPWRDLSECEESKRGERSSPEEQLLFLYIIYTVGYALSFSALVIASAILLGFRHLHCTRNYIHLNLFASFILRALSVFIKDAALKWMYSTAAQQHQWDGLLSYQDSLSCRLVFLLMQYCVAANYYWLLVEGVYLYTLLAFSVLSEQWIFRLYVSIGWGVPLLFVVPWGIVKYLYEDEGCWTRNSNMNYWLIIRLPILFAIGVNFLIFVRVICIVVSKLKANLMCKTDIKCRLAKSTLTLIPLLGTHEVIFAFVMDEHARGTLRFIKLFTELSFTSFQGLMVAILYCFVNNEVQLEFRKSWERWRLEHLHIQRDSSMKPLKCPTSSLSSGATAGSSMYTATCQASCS

albiglutide (from UniProt P02768 25-609) (ligand)
Bioassay potency; Aggregation Study, all formulations, 2 months 30°C (lower end) [1]: 130%
Bioassay potency; Aggregation Study, all formulations, 2 months 30°C (upper end) [1]: 160%
Bioassay potency; PFS Study, Variations A and B, 1 month 40°C [1]: 180%
Bioassay potency; PFS Study, all variations, 3 months 30°C [1]: 130%
decrease in FcRn binding (FcRn [2]): 23%
decrease in FcRn binding (FcRn [3]): 6%
decrease in FcRn binding (FcRn [4]): 23%
decrease in FcRn binding (FcRn [5]): 16%
